From patent publication EP0811064B1
Values joined by “and” are separate entries in the source; they are usually repeats but may differ in a detail not shown here. Identical values can stand only once. Like-named read-outs stand apart in the source and are kept apart here.

Legend:
[1] = molecular target: full length human mpl receptor expressed on 32D-mpl cells (human) (UniProt P40238); experiment: cell-based or functional assay
[2] = molecular target: full length human mpl receptor expressed on 32D-mpl cells (human) (UniProt P40238); experiment: cell-based or functional assay; remark: listed apart in the source

| Substance | IN VITRO ACTIVITY U/mg X10E6 [1] | In Vitro Activity (units/ml) [1] | Specific Activity (units/ ng) [1] | In Vitro Activity (units/ml) [2] | Specific Activity (units/ ng) [2] |
| --- | --- | --- | --- | --- | --- |
| mpl ligand analog N4 [Asn^30, Thr^32] mpl ligand 1-174 | 6e+07 U/mg | 8830 units/ml | 232 units/ng |  |  |
| mpl ligand analog N35 (N4+N23+N30 changes in mpl ligand 1-199) |  |  |  | 13100 units/ml | 76 units/ng |
| Met-Lys-mpl ligand 1-174 (E. coli) | 1.3e+07 U/mg |  |  |  |  |
| mpl ligand analog N13 [Asn^53, Thr^55] mpl ligand 1-174 |  | 18000 units/ml | 269 units/ng |  |  |
| mpl ligand analog N21 [Asn^54, Ser^56] mpl ligand 1-174 |  |  |  | 4380 units/ml | 146 units/ng |
| mpl ligand analog N14 [Asn^58, Thr^60] mpl ligand 1-174 |  | 4850 units/ml | 271 units/ng |  |  |
| mpl ligand analog N15 [Asn^30, Thr^32, Asn^120, Thr^122] mpl ligand 1-174 | 9.2e+07 U/mg | 6420 units/ml | 247 units/ng | 7000 units/ml | 156 units/ng |
| mpl ligand analog N3 [Asn^25] mpl ligand 1-174 |  | 636 units/ml | 344 units/ng |  |  |
| mpl ligand analog N33 [Asn^30, Thr^32, Asn^120, Thr^122, Asn^55'(i), Thr^57] mpl ligand 1-174 |  |  |  | 10100 units/ml | 129 units/ng |
| mpl ligand analog N27 [Asn^119, Ser^121] mpl ligand 1-174 |  |  |  | 338 units/ml | 75 units/ng |
| mpl ligand 1-183 (N16) |  |  |  | 9280 units/ml |  |
| mpl ligand analog N11 [Ser^36, Asn^38, Thr^40] mpl ligand 1-174 |  | < 10 units/ml | < 8 units/ng |  |  |
| mpl ligand analog N30 [Thr^163, Asn^164] mpl ligand 1-174 |  |  |  | 15600 units/ml | 122 units/ng |
| human mpl ligand 1-332 (CHO) | 4.1e+07 U/mg |  |  |  |  |
| mpl ligand analog N26 [Asn^118, Ser^120] mpl ligand 1-174 |  |  |  | 96 units/ml | 106 units/ng |
| mpl ligand 1-191 (N17) |  |  |  | 11 units/ml |  |
| mpl ligand analog N23 [Asn^55'(i), Thr^57] mpl ligand 1-174 |  |  |  | 1060 units/ml | 96 units/ng |
| human mpl ligand 1-163 (CHO) | 8.6e+07 U/mg |  |  |  |  |

| Substance | IN VITRO ACTIVITY U/mg X10E6 [1] | In Vitro Activity (units/ml) [1] | Specific Activity (units/ ng) [1] | In Vitro Activity (units/ml) [2] | Specific Activity (units/ ng) [2] |
| --- | --- | --- | --- | --- | --- |
| mpl ligand analog N37 [Asn^56] mpl ligand 1-174 |  |  |  | 4500 units/ml | 141 units/ng |
| mpl ligand analog N24 [Asn^57, Ser^59] mpl ligand 1-174 |  |  |  | 458 units/ml | 86 units/ng |
| mpl ligand analog N18 [Asn^23, Ser^25] mpl ligand 1-174 |  |  |  | 5 units/ml | 2.5 units/ng |
| mpl ligand analog N40 (N4+N10+N36+N38 changes in mpl ligand 1-199) |  |  |  | 19700 units/ml | 147 units/ng |
| mpl ligand analog N10 [Asn^120, Thr^122] mpl ligand 1-174 |  | 5940 units/ml and 9690 units/ml | 291 units/ng and 288 units/ng |  |  |
| mpl ligand analog N7 [Asn^82, Ala^83] mpl ligand 1-174 |  | 2660 units/ml and 3080 units/ml | 443 units/ng and 655 units/ng |  |  |
| mpl ligand analog N38 [Thr^163, Asn^164, Thr^166] mpl ligand 1-174 |  |  |  | 3900 units/ml | 156 units/ng |
| mpl ligand analog N36 [Asn^55, Thr^57] mpl ligand 1-174 |  |  |  | 5810 units/ml | 121 units/ng |
| mpl ligand 1-199 (N31) |  |  |  | 19000 units/ml | 122 units/ng |
| mpl ligand analog N25 [Asn^81, Thr^83] mpl ligand 1-174 |  |  |  | 123 units/ml | 559 units/ng |
| mpl ligand analog N22 [Asn^52, Thr^54] mpl ligand 1-174 |  |  |  | 856 units/ml | 428 units/ng |
| mpl ligand analog N29 [Asn^30, Ser^32, Asn^120, Ser^122] mpl ligand 1-174 |  |  |  | 1630 units/ml | 108 units/ng |
| mpl ligand analog N6 [Asn^86] mpl ligand 1-174 |  | < 10 units/ml | < 22 units/ng |  |  |
| mpl ligand analog N39 [Asn^30, Thr^32, Asn^120, Thr^122, Asn^55, Thr^57, Thr^163, Asn^164, Thr^166] mpl ligand 1-174 |  |  |  | 17700 units/ml | 139 units/ng |
| mpl ligand analog N20 [Asn^39, Ser^41] mpl ligand 1-174 |  |  |  | < 10 units/ml |  |
| mpl ligand analog N5 [Asn^38, Thr^40] mpl ligand 1-174 |  | < 10 units/ml | < 8 units/ng |  |  |
| mpl ligand analog N34 [Asn^30, Thr^32, Asn^55'(i), Thr^57, Thr^163, Asn^164] mpl ligand 1-174 |  |  |  | 13500 units/ml | 120 units/ng |
| mpl ligand analog N9 [Asn^92] mpl ligand 1-174 |  | 1970 units/ml | 188 units/ng |  |  |
